9 molecules from patent US20240287172A1 (SCIRHOM, published 2024) can be followed below.

The target in one test is T1, hiR2-FL-W526A-T7 (human, UniProt Q6PJF5 1-856).
T1 sequence: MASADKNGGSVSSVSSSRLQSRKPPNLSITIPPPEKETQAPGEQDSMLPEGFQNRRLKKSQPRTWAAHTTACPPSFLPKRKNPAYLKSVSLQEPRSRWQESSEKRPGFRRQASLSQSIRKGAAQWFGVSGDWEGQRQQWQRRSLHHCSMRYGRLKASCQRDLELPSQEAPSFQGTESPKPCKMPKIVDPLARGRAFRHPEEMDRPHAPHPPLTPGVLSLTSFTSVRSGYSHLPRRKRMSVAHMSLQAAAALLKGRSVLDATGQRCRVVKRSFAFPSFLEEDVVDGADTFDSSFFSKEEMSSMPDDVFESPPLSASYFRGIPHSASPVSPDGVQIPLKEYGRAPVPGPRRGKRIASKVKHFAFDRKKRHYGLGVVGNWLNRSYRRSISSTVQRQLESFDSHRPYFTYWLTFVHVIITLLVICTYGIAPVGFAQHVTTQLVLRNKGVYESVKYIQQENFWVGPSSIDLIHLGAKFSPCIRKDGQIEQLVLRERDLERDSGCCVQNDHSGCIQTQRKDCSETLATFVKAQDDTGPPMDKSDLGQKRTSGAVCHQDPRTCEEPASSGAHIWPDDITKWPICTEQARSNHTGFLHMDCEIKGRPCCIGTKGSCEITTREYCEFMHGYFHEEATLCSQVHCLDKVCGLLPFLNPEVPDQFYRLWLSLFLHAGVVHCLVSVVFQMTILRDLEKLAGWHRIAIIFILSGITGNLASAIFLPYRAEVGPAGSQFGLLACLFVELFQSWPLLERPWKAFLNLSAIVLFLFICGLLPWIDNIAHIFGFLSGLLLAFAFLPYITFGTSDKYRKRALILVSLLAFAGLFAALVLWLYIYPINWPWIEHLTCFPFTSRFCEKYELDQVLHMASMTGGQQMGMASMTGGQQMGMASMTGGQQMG
As to the kind of experiment: FACS on MEF-DKO cells expressing the variant, 3 µg/ml antibody. On the procedure: (§1) To pellet cells and remove supernatants, the plates were centrifuged at 1,500 rpm and 4° C. for 3 minutes. For primary staining, cells were resuspended in 100 μl per well of either FACS buffer alone (controls) or the purified antibodies 3, 5, 16, 22, 34, 42, 43, 44, 48, and 50 of the invention at 3 μg/ml in FACS buffer and incubated on ice for 1 hour. Afterwards, plates were centrifuged at 1,500 rpm and 4° C. for 3 minutes and washed twice with 200 μl per well of FACS buffer. For secondary staining, cells were spun down and resuspended in 100 μl per well of PE-conjugated goat anti-mouse IgG F(ab′)2 detection fragment (Dianova, Germany) diluted 1:100 in FACS buffer. Protected from light, the cell suspensions were incubated on ice for 1 hour. Plates were then centrifuged at 1,500 rpm and 4° C. for 3 minutes and washed three times with 200 μl per well of FACS buffer. Finally, cells were resuspended in 150 μl per well of FACS buffer and analyzed using a BD Accuri™ C6 Plus flow cytometer (Becton Dickinson, Germany).

For another test, the target named is T2, hiR2-FL-S561A-T7 (human, UniProt Q6PJF5 1-856).
T2 sequence: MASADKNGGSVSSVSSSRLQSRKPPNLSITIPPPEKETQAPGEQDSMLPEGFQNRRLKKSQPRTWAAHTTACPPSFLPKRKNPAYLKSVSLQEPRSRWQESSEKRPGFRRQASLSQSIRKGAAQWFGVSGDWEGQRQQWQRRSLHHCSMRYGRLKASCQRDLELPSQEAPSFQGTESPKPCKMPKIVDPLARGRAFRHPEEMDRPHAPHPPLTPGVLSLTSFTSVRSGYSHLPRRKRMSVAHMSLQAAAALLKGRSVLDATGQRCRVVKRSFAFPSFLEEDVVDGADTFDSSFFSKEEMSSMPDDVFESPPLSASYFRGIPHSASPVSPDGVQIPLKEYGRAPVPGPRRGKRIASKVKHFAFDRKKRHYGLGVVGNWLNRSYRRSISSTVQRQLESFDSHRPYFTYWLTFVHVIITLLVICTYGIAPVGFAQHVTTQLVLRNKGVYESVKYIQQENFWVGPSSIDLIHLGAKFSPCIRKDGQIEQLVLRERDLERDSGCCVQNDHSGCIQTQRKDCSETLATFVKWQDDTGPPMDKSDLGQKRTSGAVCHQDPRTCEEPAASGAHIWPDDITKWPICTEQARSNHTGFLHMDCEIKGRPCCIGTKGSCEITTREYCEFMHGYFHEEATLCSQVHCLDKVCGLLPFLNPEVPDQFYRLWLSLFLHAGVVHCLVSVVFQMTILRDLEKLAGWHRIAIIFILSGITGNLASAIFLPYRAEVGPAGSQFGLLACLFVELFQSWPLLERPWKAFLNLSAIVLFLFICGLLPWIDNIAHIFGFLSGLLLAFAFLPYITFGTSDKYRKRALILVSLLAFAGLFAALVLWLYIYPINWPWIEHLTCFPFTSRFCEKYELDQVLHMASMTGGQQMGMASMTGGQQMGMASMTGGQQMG
Described as above. On the procedure:
as §1

B1: antibody 34 (antibody, V domains shown)
VH: QVTLKESGPGILQPSQTLSLTCSFSGFSLSTFSLGVGWIRQSSGKGLEWLAHIWWDDEKYYNPALKSRLTISKDTSKNQVFLKIANVDAADTATYYCARAYYSKSYYALDYWGQGTSVTVSS
VL: DIQMTQSPSSLSASLGERVSLTCRASQEISGYLSWLQQKPDGTIKRLIYAASTLDSGVPKRFSGSRSGSDYSLAISSLESEDFADYYCLQYANFPFTFGSGTKLEIK
notes: mouse IgG, kappa light chain; also called clone #34; purified antibody 34
For B1, the “loss of binding vs wild type” value with hiR2-FL-W526A-T7 was at least 60%; in the test with hiR2-FL-S561A-T7, at least 30%.

B2: antibody 3 (antibody, V domains shown)
VH: QVTLKESGPGILQPSQTLSLTCSFSGFSLTTFAMGIGWVRQPSGKGLEWLAHIWWDGEKYNNPVLKSRLTISKDTSKNQVFLRIANVDTPDTATYYCARISSIYYIIDNWGQGTSVTVSS
VL: DIVLTQSPATLSVTPGHSVSLSCRASQSISNNLHWYQKKSHESPRLLIKYVSQSISGIPSRFSGSGSGTDFTLSINSVETEDFGMYFCQQSYNWPLTFGAGTKLELK
notes: mouse IgG, kappa light chain; also called clone #3; purified antibody 3
Turning to B2, the “loss of binding vs wild type” value with hiR2-FL-W526A-T7 and with hiR2-FL-S561A-T7 was at least 30% throughout.

B3: antibody 5 (antibody, V domains shown)
VH: QVTLKESGPGILQPSQTLSLTCSFSGFSLSTFGMGVGWIRQPSGKGLEWLAHIWWDDEKYYNSALKSRLTISKATSKNQAFLKIANVDTADTATYYCARISNYGSNYWYFNVWGTGTTVTVSS
VL: QVVLTQSPALMSASPGEKVTMTCSAGSSVSCMYWYQQKPGSSPRVLIYDTSNLASGVPARFTGSGSGTSYSLTISRMEAEDAASYYCQQWNSYPLTFGAGTKLELK
notes: mouse IgG, kappa light chain; also called clone #5; purified antibody 5
Turning to B3, the “loss of binding vs wild type” value in the test with hiR2-FL-W526A-T7 is at least 60%; with hiR2-FL-S561A-T7, at least 30%.

B4: antibody 42 (antibody, V domains shown)
VH: QVTLKESGPGILQPSQTLSLTCSLSGFSLSTFGRGVGWIRQPSGKGLEWLAHIWWDDEKYYNPALKSRLTISKDTSKNQVFLRIANVDTADTATYYCARIQNYGSNYWYFDVWGTGTTVTVSS
VL: LIVLTQSPAIMSASPGEKVTMTCGATSRISYMFWYQQKPGSSPRVLIYDTSNLASGVPVRFSGSGSGTSYSLTISRVEAEDVATYYCQQWNSYPLTFGAGTKLELK
notes: mouse IgG, kappa light chain; also called clone #42; purified antibody 42
Regarding B4, the “loss of binding vs wild type” value in the test with hiR2-FL-W526A-T7 and with hiR2-FL-S561A-T7 was at least 30% throughout.

B5: antibody 44 (antibody, V domains shown)
VH: QVTLKESGPGILQPSQTLSLTCSFSGFSLSTFGMGVGWIRQPSEKGLEWLAHIWWDDDKYYNPALKSRLTISKDTSKNQIFLKITNVDTAETATYYCSRIGNYGSNYWYFDVWGTGTTVTVSS
VL: QIVLTQSPAVMSASPGEKVTMTCTASSSVYYMYWYQQTPGSSPRLLIYDTSNLASGVPVRFSGSGSGTSYSLTISRMEAEDAATYYCQQWNTYPLTFGAGTKLELK
notes: mouse IgG, kappa light chain; also called clone #44; purified antibody 44
On to B5, for which the “loss of binding vs wild type” value with hiR2-FL-W526A-T7 and with hiR2-FL-S561A-T7 was at least 30% in each case.

B6: antibody 43 (antibody, V domains shown)
VH: QVALKESGPGILQPSQTLSLTCSFSGFSLSTFGMGVGWIRQSSGKGLEWLANIWWDDDKYYNPALKSRLTISKDASKNQAFLKIANVDTADTATYYCARIGNYGSNYWYFDVWGTGTTVTVSS
VL: QIVLTQSPAIMSASPGERVTMTCSANSRISYMYWYQQKPGSSPRLLIYDTSNLASGVPVRFSGSGSGTSYSLTISRMEAEDAATYNCQQWSSYPLTFGAGTKLELK
notes: mouse IgG, kappa light chain; also called clone #43; purified antibody 43
Turning to B6, the “loss of binding vs wild type” value with hiR2-FL-W526A-T7 and in the test with hiR2-FL-S561A-T7 was at least 30% throughout.

B7: antibody 22 (antibody, V domains shown)
VH: QVTLKESGPGILQPSQTLSLTCSFSGFSLSTFGMGVGWIRQPSGKGLEWLAHIWWDDEKYYNSALKSRLTISKATSKNQVFLKIANVDTADTATYYCARISNYGSNYWYFNVWGTGTTVTVSS
VL: QVVLTQSPALMSASPGEKVTMTCSAGSSVSYMYWYQQKPGSSPRVLIYDTSNLASGVPARFTGSGSGTSYSLTISRMEAEDAATYYCQQWNSYPLTFGAGTKLELK
notes: mouse IgG, kappa light chain; also called clone #22; purified antibody 22
For B7, the “loss of binding vs wild type” value with hiR2-FL-W526A-T7 and with hiR2-FL-S561A-T7 was at least 30% throughout.

B8: antibody 48 (antibody, V domains shown)
VH: QVQLQQSGTELVRPGTSVKVSCKASGYAFTNYLIEWVKQRPGQGLEWIGVINPGSGFTKYNEKFKGKATLTADKSSSTVYMHLSSLTSEDSAVYFCARGLYRAMDYWGQGTSVTVSS
VL: DIQMTQSPASQSASLGESVTITCLASQTIATWLAWYQQKPGKSPQLLIYGATTLADGVPSRFSGGGSGTKFSFKISSLQAEDFVSYYCQQLYSTPYTFGGGTKLEIK
notes: mouse IgG, kappa light chain; also called clone #48; purified antibody 48
As to B8, the “loss of binding vs wild type” value in the test with hiR2-FL-W526A-T7 was at least 30%.

B9: antibody 50 (antibody, V domains shown)
VH: QVQLQQSGAELVRPGASVKVSCKASGYAFSNYLIEWVKQRPGQGLEWIGVINPGSGFTKYNEKFKGKATLTADKSSSTAYMQLSSLTSEDSAVYFCARGLYRAMDYWGQGTSVTVSS
VL: DIQMTQSPASQSASLGESVTITCLASQTIGTWLAWYQQKPGKSPQLLIYAAASLADGVPSRFSGGGSGTKFSFKISSLQAEDFVNYYCQQIYSTPYTFGGGTKLEIK
notes: mouse IgG, kappa light chain; also called clone #50; purified antibody 50
As for B9, the “loss of binding vs wild type” value with hiR2-FL-W526A-T7 was at least 30%.
